Laboratory results reported in patent EP2670776B1 (F. Hoffmann-La Roche AG, dated 2018).
Substitutions are numbered along the chain they refer to. Names may count otherwise.

B1: hole Fc, wild-type hole (single Fc chain, hinge cysteines mutated to serine) (other)
chain: DKTHTSPPSPAPELLGGPSVFLFPPKPKDTLMISRTPEVTCVVVDVSHEDPEVKFNWYVDGVEVHNAKTKPREEQYNSTYRVVSVLTVLHQDWLNGKEYKCKVSNKALPAPIEKTISKAKGQPREPQVYTLPPSREEMTKNQVSLSCAVKGFYPSDIAVEWESNGQPENNYKTTPPVLDSDGSFFLVSKLTVDKSRWQQGNVFSCSVMHEALHNHYTQKSLSLSPGK
notes: IgG1 Fc with T366S, L368A, Y407V only, made in E. coli in the same manner as the knob/knob Fc; also called hole wild-type; hole/hole homodimer
B2: Knob F241S/F243R (knob Fc with F241S/F243R mutations) (other, name in EU numbering)
chain: B1 chain with F21S, F23R, S146W, A148L, V187Y
notes: Positions are EU numbers, not positions on the entry; also called F241S/F243R mutant knob

How the values were obtained:
[1] = target: B2; assay: SPR (BioRad ProteOn), ligand hole wild-type immobilized on NHS activated sensor, analyte knob F241S/F243R 6.25-200 nM
[2] = target: T1, hole F241S/F243R (human, UniProt P0DOX5 223-449 = IgG part, F241S; F243R); assay: SPR (BioRad ProteOn), ligand hole F241S/F243R immobilized on NHS activated sensor, analyte knob F241S/F243R 6.25-200 nM
T1 construct: SPR ligand named only 'hole F241S/F243R'; Positions are EU numbers

Row | Binder | Kd [1] | Kd [2]
1 | B1 | < 10 nM | –
2 | B2 | – | < 10 nM
